Series [1] can be described thus: Elution rate: reverse-phase HPLC peak area of the peptide after vs before 0.22 μm filtration. The conditions noted are these: peptide 94/99/161 μM. Format: physicochemical. The protocol: (§1) Peptide 1, Peptide 2, and Peptide 3 (100 μg each) were separately added to 410 mM arginine solutions (pH 11) to adjust each total amount to 700 μL. Molarities in these solutions are 94 μM (Peptide 1), 99 μM (Peptide 2), and 161 μM (Peptide 3). […] Then, 200 μL each of the sample solutions was filtered with a filter Millex (registered trademark)-GV (trade name, manufactured by Nihon Millipore) with a pore size of 0.22 μm. The sample solutions before filtration and the sample solutions after filtration were respectively analyzed by reverse-phase HPLC. Peak area percentages were determined from the peak area values of the peptides before and after filtration and used as elution rates. HPLC analytical conditions are shown below.
(§2) For a comparative example, Peptide 1, Peptide 2, and Peptide 3 were separately dissolved in each of water and dimethylsulfoxide (DMSO) to prepare samples having a peptide concentration of 94 μM, 99 μM, or 161 μM, which were studied in the same way as above.
Column: Cosmosil 5C18-AR-300 (Manufactured by Nacalai Tesque, 4.6×150 mm)
Detection: ultraviolet and visible spectrophotometer (detection wavelength: 220 nm)
HPLC system: Alliance (manufactured by Waters, Japan)
Eluant A: 0.1% trifluoroacetic acid (hereinafter, TFA)/purified water
Eluant B: 0.1% TFA/acetonitrile
Concentration gradient: 0 min (Eluant B 20%)→25 min (Eluant B 70%)
(§3) Arginine, lysine, and histidine were separately dissolved in water to prepare 410 mM arginine solution, 489 mM lysine solution, and 90 mM histidine solution. An aqueous solution of sodium hydroxide and hydrochloric acid were added to these solutions to adjust the pH of the aqueous solutions of lysine and histidine to 8, 9, 10, and 11, and the pH of the aqueous solution of arginine to 8, 8.5, 9, 9.5, 10, and 11. Subsequently, Peptide 1 was added to these aqueous solutions to prepare 94 μM Peptide 1 solutions. […] Then, 200 μL each of the sample solutions was filtered with a filter Millex (registered trademark)-GV (trade name, manufactured by Nihon Millipore) with a pore size of 0.22 μm. The sample solutions before filtration and the sample solutions after filtration were respectively analyzed by reverse-phase HPLC. Peak area percentages were determined from the peak area values of Peptide 1 before and after filtration and used as elution rates. HPLC analytical conditions were the same as the conditions described in Example 1.
(§4) Imidazole was dissolved in water to prepare 1 mM imidazole solution. pH was adjusted to 8, 8.5, and 9 by adding an appropriate amount of hydrochloric acid to this solution. Subsequently, Peptide 1 was added to these imidazole solutions to prepare 94 μM Peptide 1 solutions. […] Then, 200 μL each of the sample solutions was filtered with a filter Millex (registered trademark)-GV (trade name, manufactured by Nihon Millipore) with a pore size of 0.22 μm. The sample solutions before filtration and the sample solutions after filtration were respectively analyzed by reverse-phase HPLC. Peak area percentages were determined from the peak area values of Peptide 1 before and after filtration and used as elution rates. HPLC analytical conditions were the same as the conditions described in Example 1.
(§5) Disodium hydrogen phosphate, sodium dihydrogen citrate, sodium ascorbate, and imidazole were separately dissolved in water to prepare their respective aqueous solutions with pH 9 at concentrations described in Table 4. pH adjustment was performed with hydrochloric acid and an aqueous solution of sodium hydroxide. The above-described aqueous solutions were separately added to the weighed Peptide 1 to prepare 94 μM Peptide 1 solutions. […] These Peptide 1 solutions were compared with the Peptide 1 sample solutions using the respective aqueous solutions of disodium hydrogen phosphate, sodium dihydrogen citrate, and sodium ascorbate used as comparative controls. […]

Series [2] in a line: External observation of peptide sample solutions (presence or absence of white turbidity). The class given is physicochemical. The protocol:
as §1, §2, §3, §4
as §5, with “controls. Subsequently, 200 μL each of the sample solutions was filtered with a filter Millex (registered trademark)-GV (trade name, manufactured by Nihon Millipore) with a pore size of 0.22 μm. The sample solutions before filtration and the sample solutions after filtration were respectively analyzed by reverse-phase HPLC.” for “controls.”

[3] abbreviates: 410 mM arginine solution, pH 11.
The mark [4] stands for this setting: 410 mM arginine solution, pH 11, peptide 94/99/161 μM.
Where [5] appears, read: solvent DMSO, peptide 94/99/161 μM.
Setting [6] is: solvent water, peptide 94 μM (Peptide 1), 99 μM (Peptide 2), 161 μM (Peptide 3).

Square brackets hold non-standard residues; d marks the D form. Ends that are not written are not given here. * marks the point of attachment. Nle = CCCC[C@H](N)C(=O)O; For = O=C*

On to “formyl-Met-Leu-Phe-Lys-ε(-Gly-Asp-Ac—S-Bzl) (For-MLFKGD; not fully specified (C-terminus); printed as formyl-Met-Leu-Phe-Lys-ε(-Gly-Asp-Ac—S-Bzl); also: Gly-Asp attached through Lys epsilon-amino (branch)) [Peptide 3]”, for which the values for the Elution rate in series [1] (setting [3]) and in series [1] (solvent DMSO) were 101.3% and 108.5%, respectively. Also, the Appearance entry in series [2] (setting [4]) is reported as “Colorless,”; in series [2] (setting [5]) it was “Colorless,”; in series [2] (setting [6]), “Whitish”.
For the substance “formyl-Nle-Leu-Phe-Nle-Tyr-Lys(NH2)-ε(-Ser-D-Arg-DTPA*) (For-[Nle]LF[Nle]YKS[dR]; not fully specified (C-terminus); also: Lys(NH2): Lys α-carboxamide, Ser-D-Arg branch on Lys ε-amine, DTPA* at end of Ser-D-Arg branch) [Peptide 2]”, the Elution rate in series [1] (setting [3]) is reported as 102.8%; in series [1] (solvent DMSO) it was 100.9%. Besides, the Appearance entry in series [2] (setting [4]) is given as “Colorless,”; in series [2] (setting [5]) it was “Colorless,”; in series [2] (setting [6]), “Whitish”.

The values above are taken from patent publication US7854918B2, “Composition for medical use having improved water-solubility of peptide and metal-labeling efficiency and preparation for medical use comprising metal-labeled peptide” (Nihon Medi-Physics Co., Ltd., priority 2004, dated 2010).
